Measurements: the RNAGym collection of RNA variant scans (doi:10.7554/elife.90254)

B1: LINE1-mini (parent)
chain: GGCAGAGCUCAACACAGCGUGGCAAAGUGGCUGUGGCUAGACUGCC

Variants of: B1
Experiment: self-cleavage, relative activity (ratio to wild type); higher = more cleavage; in vitro, sequencing; the parent is a self-cleaving ribozyme

Variant | self-cleavage
GGGAGAGAUCAACACAGCGUGGCAAAGUGGCUGUGGCUAGACUGCC | 0.52
GGCAGAGCUCAACACAUCGUGGGAAAGUGGCUGUGGCUAGACUGCC | 0.1
GGCGGAGCUCAACACAGCGUGGCAAAGUGGCCGUGGCUAGACUGCC | 0.15
GGCAGAGCUCCACACAGCGUGGCAAAGUGGCUGUGGCUAGACUGCA | 0.03
GGGUGAGCUCAACACAGCGUGGCAAAGUGGCUGUGGCUAGACUGCC | 0.36
GGCAGAGCUCAACACAGCGGGGCAAAGGGGCUGUGGCUAGACUGCC | 0.51
UGCAGAGCUCAACACAGCCUGGCAAAGUGGCUGUGGCUAGACUGCC | 0.2
GGCAGAGCUCAACACAGCGUGUCAAAGUGGCUUUGGCUAGACUGCC | 0.28
GUCACAGCUCAACACAGCGUGGCAAAGUGGCUGUGGCUAGACUGCC | 0.04
GGCAGAGCUCAACACAGCGUGGCAAAGUGGCUGUGGCUCGACCGCC | 0.08
GGCAUAGCGCAACACAGCGUGGCAAAGUGGCUGUGGCUAGACUGCC | 0.11
GGCAGAGCUCAACACAGCUUGGCAAAGUGGCUGUGGCUAGCCUGCC | 0.03
GGCAGGGCUCAACACAGCGUGGCAAACUGGCUGUGGCUAGACUGCC | 0.07
GGCAGAGCUCAACACUGCGUGGCAAACUGGCUGUGGCUAGACUGCC | 0.16
GGCAGAGCUCGACACAGCGUGGCAAAGUGGCUGUGGCUAGACGGCC | 0
GGCAGAACUCAACACAGCGUGGCAAGGUGGCUGUGGCUAGACUGCC | 0.24
GGCAGCGUUCAACACAGCGUGGCAAAGUGGCUGUGGCUAGACUGCC | 0.51
GGCAGAGCUCAACACAGCGUGGCGAAGUGGCUGUGGUUAGACUGCC | 0.05
GGCAGAGCUCAACACAGCGUGGCAAGGUGGCUGUGGCUAAACUGCC | 0.14
GGCAGAGUUCGACACAGCGUGGCAAAGUGGCUGUGGCUAGACUGCC | 0.03
GGCAGGGCUCUACACAGCGUGGCAAAGUGGCUGUGGCUAGACUGCC | 0.02
GGCAGAGCUCAACACAUCGUGGCAAAGUGGCUGUGGCUAGUCUGCC | 0.09
GGCAGAGCUCAACACAGCGUGCCAAAGUGGCUGUGGCUAGACUGUC | 1.21

Variant | self-cleavage
GGCAGAGCUCAACAGAGCGUGGCAAAGUGGCUGUGGCUGGACUGCC | 0.03
GGCAGAGCUCAACACAGCAUCGCAAAGUGGCUGUGGCUAGACUGCC | 0.39
GGCAGAGCUCAACACAGCGUGGCCAAGUGGCUGUGGCUAGACUCCC | 0.47
GGCAGAGCUCAACACAGCGUGGCAAAGUGGCUGUGGCUAGCCUACC | 0.05
GGCAGAGCUCAACACAGCGUGGCAAAGUGGCUGGGGCUAGACUGCA | 0.18
GGCAGAGCUCAACACAGCGUGGCAAUGUGGCUGGGGCUAGACUGCC | 0.15
GGCAGAGCUCAACACAGCGUGGCGAAGUGGCUGUGGCUAGAAUGCC | 0.19
GGCAGAGCUCAACACAGCGUGGCAGAGUGGCUGUGGCUAGACUUCC | 0.28
GGCAGAACUCAACACAGCGUGGCAAAGUGGCUGUGACUAGACUGCC | 0.43
GGCACAGCUCAACACAUCGUGGCAAAGUGGCUGUGGCUAGACUGCC | 0.04
GUCAGAGAUCAACACAGCGUGGCAAAGUGGCUGUGGCUAGACUGCC | 0.07
GUCAGAGCUCAACACAGCGUGGCAAAGUGGCUGUGGCUAGACUGCG | 0.1
GGCAGAGCUCAACACAGCGUGGCCAAGUGGCUGUUGCUAGACUGCC | 0.05
GGCAGAGCGCAACACAGCGUGGCAAAGUGGCAGUGGCUAGACUGCC | 0.12
GGCAGAGCUCAACCCACCGUGGCAAAGUGGCUGUGGCUAGACUGCC | 0.04
GGCAAAGCUCAACACAGCGUGGCAAAGUGGCUGUGGCUAGGCUGCC | 0.04
GGCAGAGCUCAACACAGCGUGGCAUAGUGGCUGUGGCUAAACUGCC | 0.18
GGCCUAGCUCAACACAGCGUGGCAAAGUGGCUGUGGCUAGACUGCC | 0.21
GGCAGAGCUCAACACGGCGUGGCAAAGUGGCUCUGGCUAGACUGCC | 0.05
GGCACAGCUCAACACAGCGUGGGAAAGUGGCUGUGGCUAGACUGCC | 0.04
GGCAGAGCUCAACACACCGUGGCAAAGUGGCUGUGGCUAGACUACC | 0.11
CGCAGAGCUCAACACAGCGUGGCAAAGUGGCUGUGGCUAGGCUGCC | 0.02
GGCAGAGCUCAACACAGCGUGGCAAAGCGGCUGUGGCUAGACAGCC | 0.08

Variant | self-cleavage
CGCAGAGUUCAACACAGCGUGGCAAAGUGGCUGUGGCUAGACUGCC | 0.07
GGCAGAGCUCAACACAGCGUGGCCAAGUUGCUGUGGCUAGACUGCC | 0.87
GGCAGAGCUCAACACAGCGUGGCAAAGUGGCGGUGGCUGGACUGCC | 0.8
GGCAGAGGUCAACACAGCGUGGCAAAGAGGCUGUGGCUAGACUGCC | 0.05
GGCAGAGCUCAACACAGCGUAGCAAAGUGUCUGUGGCUAGACUGCC | 2.01
GGCAGAGCUCAACACAGCGUGGAAAUGUGGCUGUGGCUAGACUGCC | 0.88
GGCAGAGCUCAACACAGCGUGGCAAAGUGGCUGUGGCUAGUCUCCC | 0.49
GGCAGAGCUCAACACAGCGUGGCAAAGUGGCUGUGAAUAGACUGCC | 0.11
GGUAGAGCUCAACACAGCUUGGCAAAGUGGCUGUGGCUAGACUGCC | 0.32
GGCAGAGCUCAACACAGCGAGGCAAAGUGGCUGUGGCUAGACUACC | 0.51
GGCAUAGCUCAACACCGCGUGGCAAAGUGGCUGUGGCUAGACUGCC | 0.03
GGCAGAGUUCAACACAGCGUGGCGAAGUGGCUGUGGCUAGACUGCC | 0.14
GGCAGAGCUCAACACAGCGUGGCAAAGGGGUUGUGGCUAGACUGCC | 0.47
GGCAGAGCUCAACACAGCGUGGCAAUGUGGCUGUGGCUAGACGGCC | 0.09
GGCAGAGCUCAACACAGCGUGGCCAAGUGGCUGUGGCAAGACUGCC | 0.3
GGCAAAGCUCUACACAGCGUGGCAAAGUGGCUGUGGCUAGACUGCC | 0.04
GGGAGAGCUCAGCACAGCGUGGCAAAGUGGCUGUGGCUAGACUGCC | 0.09
GGCAGAGCUCCACACAGCGUGGCAAAGUGGCUGUGGCUCGACUGCC | 0.02
GGCAGAGCUCAACACAGCGUGGCAAAGUUGCUGUGGCUAGGCUGCC | 0.41
GGCAGAGCUCAACACAGCGAGGCAAAGUCGCUGUGGCUAGACUGCC | 0.55
GGCACAGCUCAACAAAGCGUGGCAAAGUGGCUGUGGCUAGACUGCC | 0.05
GGCAGAGCUCAACACAGCGUGGCAAAGUGGCUGUGGCUGCACUGCC | 0.08
GGAAGAGCUCAACACAGCGUGGCAAAGUGGCUGUGGCUAGACUUCC | 2.11

Variant | self-cleavage
GGCAGAGCUCAACACAGCGUGGCAAAGUGGCUGUGGAUAGACUGCC | 0.08
GGCAGAGCUCAACACAGCGUGGCAAAGCGGCUCUGGCUAGACUGCC | 0.06
GCCAGAGCUCAACACAGCGUGGCAAAUUGGCUGUGGCUAGACUGCC | 0.14
GGCAGAGCUCAACACAGCGUGACAAAGAGGCUGUGGCUAGACUGCC | 0.4
GGCAGAGCUCAACACAGCGUGUCAAAGUGGCUGUGGCUACACUGCC | 0.18
GGCAGAGCUCAACACUGCGUGGCAAAGUGGGUGUGGCUAGACUGCC | 0.04
GGCAGAGCUCAACACAGCGUGGCAAAGUGGCUGUGGCUAGAGCGCC | 0.03
GGCAGAGCUCAACACAGCGUAGCAAAGUGGCCGUGGCUAGACUGCC | 0.48
GGAAGAGCUCAACUCAGCGUGGCAAAGUGGCUGUGGCUAGACUGCC | 0.27
GGCAGUGCUCAACACAGCGUGGCAAAGUGGCUCUGGCUAGACUGCC | 0.43
GGCAGAGCUCAACACAGCGUGCCAAAGUGCCUGUGGCUAGACUGCC | 1.94
UGCAGAGCUCAACACAGCGUGGCAAAGUGGGUGUGGCUAGACUGCC | 0.04
GGCAGAGCUCAACACAGCGUGGCCAAGUGGCUGUGACUAGACUGCC | 0.48
GGCAGAGCUCAACACACCGUGGCAAAGUGGCUGUGGCUAGACUCCC | 0.05
GGCAGAGCUCAACACAGCGUGCCAAAUUGGCUGUGGCUAGACUGCC | 0.53
GGCAGAGCUCAACACUGCGUGGCAUAGUGGCUGUGGCUAGACUGCC | 0.1
GGCAGAGCUCAACACAGCGAGGCGAAGUGGCUGUGGCUAGACUGCC | 0.68
GGCAGAGCUUAACACAGCGUGGCAAAGUGGCUGUGGCUAGAAUGCC | 0.05
GGCAGAGCUCAACACCGCGUGGCAAAGUGACUGUGGCUAGACUGCC | 0.14
GGCAGAGCUCAACACAGCGUGGCAAAGUGGCUGUGGCUGGACUCCC | 0.09
GGCAGAGCUCAACACAGCGUGGCAAAGUGGCUGUAGCUAGUCUGCC | 0.14
GGCAGAGCUCAACACAGCGUGGCAAAGUGGCUGGGGCUAGACCGCC | 0.07
GGCAGAGGUCAACACAGCGUGGCAAAGUGGCUGGGGCUAGACUGCC | 0.08

Variant | self-cleavage
GGCAGAGCUCAACAGAGCGUGGCAAAGUGGCUGUGGCUAGACUGAC | 0.02
GGGAGAGCUCAACACAGCGUGGCAAAGUGGCUGUGGCUAGAAUGCC | 0.28
GGCCCAGCUCAACACAGCGUGGCAAAGUGGCUGUGGCUAGACUGCC | 0.08
GACAGAGCUCAACACAGCGUGGCAAAGUUGCUGUGGCUAGACUGCC | 0.9
GGCAGCGCUCAACACAGCGUGGCAAAGUGGGUGUGGCUAGACUGCC | 0.09
GGCAGAGCUCAACACAGCGUGGCAAAGUGGCCGUGGCUAGACUUCC | 0.07
GGCAGAGCUCAACACAACGGGGCAAAGUGGCUGUGGCUAGACUGCC | 0.07
GGCAGAGCUCAACACGGCGUGGCAAAGUGGCGGUGGCUAGACUGCC | 0.11
GGCAGAGCUCAACACAACGUGGCAAAGUGGCUGUGGCUACACUGCC | 0.09
GGCAGAGCUCAACACAGCGUGGCAGAGUGGCUGUGGCCAGACUGCC | 0.14
GGCACAGCUCAACACAGCGUCGCAAAGUGGCUGUGGCUAGACUGCC | 0.04
GGCAGAGCUCAACACAGCGUGGCAAAGUGGCUGGGGAUAGACUGCC | 0.06
GGCAGUGCUCAACACAGCGUGGCGAAGUGGCUGUGGCUAGACUGCC | 0.94
GGCAGAGCUCAACACGGCGUGGCAAAGUGCCUGUGGCUAGACUGCC | 1.19
GGCAGAGCUCAACACAGCGUGGCAGAGUGGCUGUGGCUGGACUGCC | 0.07
GGCAGAGCUCAACACAGCGUGGCAAAGUGGCUAUUGCUAGACUGCC | 0.1
GGCAGAGCUCAACACAGCGUGGCAAAGUGGCUCUGGGUAGACUGCC | 0.04
GGUAGAGCUCAACACAGCGUGGCAAAGUGGCUGCGGCUAGACUGCC | 0.07
GGCAGAGCUCAACGCAGCCUGGCAAAGUGGCUGUGGCUAGACUGCC | 0.25
GGCAGAGCUCAACACAGCGUGGCAAAGUGGCUGUGGCUAGACUACU | 0.16
